Molecular target: the molecule itself
Test: SEC; HiLoad Superdex 200 HR column, 20 mM Na-Hepes, 200 mM NaCl, pH 7.0, 0.7 mL/min, 4 °C; relative molecular mass of the oligomeric forms estimated from a calibration curve with standard proteins

B1: human phenylalanine hydroxylase (enzyme, UniProt P00439 1-452, looked up)
chain: MSTAVLENPGLGRKLSDFGQETSYIEDNCNQNGAISLIFSLKEEVGALAKVLRLFEENDVNLTHIESRPSRLKKDEYEFFTHLDKRSLPALTNIIKILRHDIGATVHELSRDKKKDTVPWFPRTIQELDRFANQILSYGAELDADHPGFKDPVYRARRKQFADIAYNYRHGQPIPRVEYMEEEKKTWGTVFKTLKSLYKTHACYEYNHIFPLLEKYCGFHEDNIPQLEDVSQFLQTCTGFRLRPVAGLLSSRDFLGGLAFRVFHCTQYIRHGSKPMYTPEPDICHELLGHVPLFSDRSFAQFSQEIGLASLGAPDEYIEKLATIYWFTVEFGLCKQGDSIKAYGAGLLSSFGELQYCLSEKPKLLPLELEKTAIQNYTVTEFQPLYYVAESFNDAKEKVRNFAATIPRPFSVRYDPYTQRIEVLDNTQQLKILADSINSEIGILCSALQKIK
notes: human phenylalanine hydroxylase (hPAH), expressed in E. coli as a fusion protein; a His tag is inferred from pTrcHis and the Ni resin; The tetrameric fraction from SEC was used as the fusion protein; also called hPAH; Human PAH; source: E. coli, fusion protein, purified (Ni-chelating resin, SEC)
stoichiometry N: 4

— article PMC8000282, “In Silico and In Vitro Tailoring of a Chitosan Nanoformulation of a Human Metabolic Enzyme” (Pharmaceutics, 2021)
